Measured values taken from patent US20250277026A1 (NOVAROCK BIOTHERAPEUTICS, published 2025).

How the values were obtained:
human Claudin-6 [1] = molecular target: T1, human Claudin-6 (human, UniProt P56747 1-220); assay: FACS dose response, Claudin-6-CHO-K1 cells, hybridoma-purified antibody
T1 construct: also called CLDN6
T1 sequence: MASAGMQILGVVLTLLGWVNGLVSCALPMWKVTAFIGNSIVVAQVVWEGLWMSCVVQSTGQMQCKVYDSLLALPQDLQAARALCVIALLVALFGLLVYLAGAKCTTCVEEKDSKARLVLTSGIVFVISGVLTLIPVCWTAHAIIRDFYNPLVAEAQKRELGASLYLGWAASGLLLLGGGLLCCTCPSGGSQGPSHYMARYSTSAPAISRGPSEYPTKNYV
Experimental: (§1) The anti-CLDN6 antibodies were also evaluated for their binding affinity to Claudin-6 overexpressing cell lines by FACS.

human Claudin-6 [2] = molecular target: T1, human Claudin-6; assay: FACS dose response, NEC8 cells (endogenous CLDN6), hybridoma-purified antibody
Experimental: (§2) Cells were fixed with 2% PFA (Alfa Aesar, catalog number: J61899) for 15 minutes at 4° C. and then washed. […] Flow cytometric analyses were performed on a flow cytometry instrument (Intellicyte, IQue plus, Sartorius).
as §1

human Claudin-9 = molecular target: T2, human Claudin-9 (human, UniProt O95484 1-217); assay: FACS, Claudin-9-HEK293 cells, 10 µg/ml, hybridoma-purified antibody
T2 construct: On transfected HEK293 cells; also called CLDN9
T2 sequence: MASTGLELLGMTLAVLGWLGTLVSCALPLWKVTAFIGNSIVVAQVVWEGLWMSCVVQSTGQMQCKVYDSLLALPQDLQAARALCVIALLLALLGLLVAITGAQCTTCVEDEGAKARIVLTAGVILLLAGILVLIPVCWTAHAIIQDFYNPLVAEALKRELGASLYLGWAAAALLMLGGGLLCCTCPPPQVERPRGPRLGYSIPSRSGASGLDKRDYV

human Claudin-6 [3] = molecular target: T1, human Claudin-6; assay: FACS, Claudin-6-HEK293 cells, 10 µg/ml, hybridoma-purified antibody
human Claudin-3 = molecular target: T3, human Claudin-3 (human, UniProt O15551 1-220); assay: FACS, CHO-K1 cells overexpressing Claudin-3 (CHO-K1-CLDN3), serial dilution, MFI
T3 construct: On transfected CHO-K1 cells, or endogenous on MCF7 cells; also called CLDN3
T3 sequence: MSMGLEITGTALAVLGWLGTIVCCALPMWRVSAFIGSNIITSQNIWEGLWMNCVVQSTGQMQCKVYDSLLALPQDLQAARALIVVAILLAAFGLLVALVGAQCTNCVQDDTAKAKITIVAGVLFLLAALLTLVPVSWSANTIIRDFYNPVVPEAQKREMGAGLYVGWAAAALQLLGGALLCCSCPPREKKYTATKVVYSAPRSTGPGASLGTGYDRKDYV

human Claudin-6 [4] = molecular target: T1, human Claudin-6; assay: FACS, NEC8 cells (endogenous CLDN6), 10 µg/ml, hybridoma-purified antibody
Experimental: as §2

human Claudin-6 [5] = molecular target: T1, human Claudin-6; assay: FACS dose response, Claudin-6-HEK293 cells, hybridoma-purified antibody
Experimental: as §1

B1: NR.N6.Ab6 (antibody, V domains shown)
VH: QVQLQESGPGLVKPSETLSLTCTVSGGSISSYYWSWIRQPPGKGLEWIGYIYYSGSTNYNPSLKSRVTISLDTSKNQFSLKLTSVTAADTAVYYCARGSIPVAGTSYFYYYGMDVWGQGTTVTVSS
VL: EIVMTQSPATLSLSPGERATLSCRASQSVSSSYLSWYQQKPGQAPRLLIYGASTRATGIPARFSGSGSGTDFTLTISSLQPEDFAVYYCQQDYNLPWTFGQGTKVEIK
- EC50 (human Claudin-6 [1]): 3.06 nM
- EC50 (human Claudin-6 [2]): 5.63 nM
- fold MFI over isotype control (human Claudin-9): 47 fold
- fold MFI over isotype control (human Claudin-6 [3]): 60 fold
- binding result (human Claudin-3): no binding (tested: log 1.8 (about 67 nM))
- fold MFI over isotype control (human Claudin-6 [4]): 23 fold
- EC50 (human Claudin-6 [5]): 4.11 nM
